Measurements as given in US20220143148A1, “COMPOSITIONS AND METHODS FOR MODULATING CGRP SIGNALING TO REGULATE INTESTINAL INNATE LYMPHOID CELLS” (The Broad Institute, Inc., priority 2019, published 2022).

System: small intestinal immune cells
Test: Droplet-based scRNA-seq of small intestinal immune cells (LP and PP), OVA vs PBS, clustering and differential expression
Assay type: in vivo, mouse
Conditions: PP
Excerpt: To comprehensively characterize small intestinal immune cells, Applicants generated scRNA-Seq profiles for 58,067 immune cells collected from lamina propria (LP) and Peyer's patch (PP) regions at steady state and after induction of a type 2 inflammatory reaction to ovalbumin (OVA) (Brandt et al., 2003) (FIGS. 1A and 8A). To ensure sufficient representation of rare cells, Applicants combined a normalization strategy—removing by flow sorting either a portion of IgD+ naïve B cells, which are the most abundant cell type in PPs, or all CD19+ and CD3+ T cells (FIG. 8B, Methods)—with profiling of a sufficiently large number of cells number (P>0.99 to recover at least 15 cells from each cluster, Methods) by massively parallel scRNA-seq (Haber et al., 2017) (Methods). Applicants obtained 36,797 and 21,270 high quality cells passing initial filtering (Methods) from PP and LP regions, respectively.
Overall, Applicants annotated 27 cell subsets across the two compartments, spanning T cells, B cells, ILCs, dendritic cells (DCs), myeloid cells and stromal cells, in frequencies ranging from 0.07% to 14%. Briefly, Applicants first partitioned the cells from the PP regions by unsupervised clustering (Methods) into 46 clusters, retained the 97% of cells that were robustly assigned cell identities in each cluster (Methods), assigned the cells from the LP regions to the 46 clusters using a classifier (Methods), and visualized the data with scvis (Ding et al., 2018), a deep generative model-based method (FIGS. 1B and 8C, Methods). Next, Applicants identified genes that were differentially expressed between the cells in each cluster and the remaining cells (Table 1, Methods), as well as between pairs of clusters (Table 2), to elucidate identities of similar cell types/states. Applicants excluded from downstream analysis clusters mostly consisting of contaminants from epithelium, likely doublets, or cells with a small number of Unique Molecular Identifiers (UMIs) (FIGS. 1C and 8D), or lacking distinct markers (Methods). Altogether, Applicants retained 27 clusters spanning 85% of the cells and each associated with distinct marker genes (FIG. 8E, Methods).
To induce allergic reaction to OVA, 6 to 7 weeks old mice were sensitized twice, two weeks apart, with 50 μg of OVA plus 1 mg of aluminum potassium sulfate adjuvant via intraperitoneal injection. Two weeks later, mice were orally administered with 50 mg of OVA on every other day for a total of five times. 1 μg of α-CGRP peptide was administered simultaneously when indicated. Mice were deprived of food for 3-4 hours in cages with wood chip bedding for limiting antigen degradation in the stomach before each intragastric challenge.
Isolation of cells from Peyer's patches (PPs). Peyer's patches (PPs) were carefully dissected from the small intestine under a stereo microscope using a fine scissor, pierced once with a fine forcep. Tissues were digested in freshly made digestion buffer (RPMI-1640 containing 100 μg/ml Liberase™ and 50 μg/ml DNase I at 37° C. on a roto-mixer. After 15 min, tissues were very gently mixed using a 1 ml pipette. The supernatant was collected and added to ice-cold MACS buffer (pH 7.4; PBS plus 2% FCS and 2 mM EDTA). Pre-warmed (37° C.) fresh digestion buffer was added to the remaining tissues. After rotation at 37° C. for 15 min, the mixture was vigorously mixed using a 1 ml pipette for 1 min. Supernatants from the two steps were combined and passed through 70 μm filters and stained for FACS (below).
Isolation of cells from the lamina propria (LP). The small intestines were opened longitudinally and washed in ice-cold PBS. For scRNA-seq, roughly 0.5 cm of fragments from each of the distal, middle and proximal regions without visible PPs were collected. Epithelial cells were dissociated by tissue rotation in pre-warmed (37° C.) PBS containing 10 mM EDTA at 37° C. for 15 min, followed by additional incubation on ice for 15 min. Tissues were then shaken vigorously. […]

B1: OVA (protein, UniProt P01012 2-386, looked up)
Ovalbumin: GSIGAASMEFCFDVFKELKVHHANENIFYCPIAIMSALAMVYLGAKDSTRTQINKVVRFDKLPGFGDSIEAQCGTSVNVHSSLRDILNQITKPNDVYSFSLASRLYAEERYPILPEYLQCVKELYRGGLEPINFQTAADQARELINSWVESQTNGIIRNVLQPSSVDSQTAMVLVNAIVFKGLWEKAFKDEDTQAMPFRVTEQESKPVQMMYQIGLFRVASMASEKMKILELPFASGTMSMLVLLPDEVSGLEQLESIINFEKLTEWTSSNVMEERKIKVYLPRMKMEEKYNLTSVLMAMGITDVFSSSANLSGISSAESLKISQAVHAAHAEINEAGREVVGSAEAGVDAASVSEEFRADHPFLFCIKHIATNAVLFFGRCVSP
Ptprcap LN (average fold change) (cluster ID 8, OVA vs PBS): 0.276
Rab35 LN (average fold change) (cluster ID 8, OVA vs PBS): 0.478
Rac2 LN (average fold change) (cluster ID 8, OVA vs PBS): 0.169
Rel LN (average fold change) (cluster ID 8, OVA vs PBS): −0.595
Rgs1 LN (average fold change) (cluster ID 8, OVA vs PBS): 0.795
Rnf125 LN (average fold change) (cluster ID 8, OVA vs PBS): −0.483
Rnf157 LN (average fold change) (cluster ID 8, OVA vs PBS): −0.362
Rora LN (average fold change) (cluster ID 8, OVA vs PBS): −0.455
Rrad LN (average fold change) (cluster ID 8, OVA vs PBS): −0.602
Rsrp1 LN (average fold change) (cluster ID 8, OVA vs PBS): 0.318
Samd9l LN (average fold change) (cluster ID 8, OVA vs PBS): 0.479
Samsn1 LN (average fold change) (cluster ID 8, OVA vs PBS): −0.280
Sh2d1a LN (average fold change) (cluster ID 8, OVA vs PBS): 0.388
Sik1 LN (average fold change) (cluster ID 8, OVA vs PBS): −0.527
Skil LN (average fold change) (cluster ID 8, OVA vs PBS): −0.410
Sla LN (average fold change) (cluster ID 8, OVA vs PBS): 0.486
Slfn2 LN (average fold change) (cluster ID 8, OVA vs PBS): 0.342
Sp100 LN (average fold change) (cluster ID 8, OVA vs PBS): 0.330
Taf10 LN (average fold change) (cluster ID 8, OVA vs PBS): −0.372
Tfam LN (average fold change) (cluster ID 8, OVA vs PBS): −0.555
Tgif1 LN (average fold change) (cluster ID 8, OVA vs PBS): −0.580
Tm6sf1 LN (average fold change) (cluster ID 8, OVA vs PBS): 0.360
Traf1 LN (average fold change) (cluster ID 8, OVA vs PBS): −0.355
Tsc22d3 LN (average fold change) (cluster ID 8, OVA vs PBS): 0.472
Tuba4a LN (average fold change) (cluster ID 8, OVA vs PBS): −0.361
Txndc5 LN (average fold change) (cluster ID 8, OVA vs PBS): 0.592
Txnip LN (average fold change) (cluster ID 8, OVA vs PBS): 1.190
Ube2s LN (average fold change) (cluster ID 8, OVA vs PBS): −0.248
VgIl4 LN (average fold change) (cluster ID 8, OVA vs PBS): −0.452
Vps37b LN (average fold change) (cluster ID 8, OVA vs PBS): −0.178
Zc3h12a LN (average fold change) (cluster ID 8, OVA vs PBS): −0.680
Zfp36l2 LN (average fold change) (cluster ID 8, OVA vs PBS): 0.382
Zfp512 LN (average fold change) (cluster ID 8, OVA vs PBS): 0.523
AC125149.3 percentage of expressing cells in OVA-treated group (cluster ID 9): 0.619
Actg1 percentage of expressing cells in OVA-treated group (cluster ID 9): 1
Apobec1 percentage of expressing cells in OVA-treated group (cluster ID 9): 0.86
Basp1 percentage of expressing cells in OVA-treated group (cluster ID 9): 0.871
Cdk1 percentage of expressing cells in OVA-treated group (cluster ID 9): 0.478
Cks1brt percentage of expressing cells in OVA-treated group (cluster ID 9): 0.262
Ddit4 percentage of expressing cells in OVA-treated group (cluster ID 9): 0.241
Eif2ak3 percentage of expressing cells in OVA-treated group (cluster ID 9): 0.384
Hspa8 percentage of expressing cells in OVA-treated group (cluster ID 9): 0.995
Igha percentage of expressing cells in OVA-treated group (cluster ID 9): 0.566
Ighg3 percentage of expressing cells in OVA-treated group (cluster ID 9): 0.211
Il2 percentage of expressing cells in OVA-treated group (cluster ID 9): 0.244
Lnx2 percentage of expressing cells in OVA-treated group (cluster ID 9): 0.191
Malat1 percentage of expressing cells in OVA-treated group (cluster ID 9): 1
Mcpt1 percentage of expressing cells in OVA-treated group (cluster ID 9): 0.156
Narf percentage of expressing cells in OVA-treated group (cluster ID 9): 0.441
Nme2 percentage of expressing cells in OVA-treated group (cluster ID 9): 0.4
Rsrp1 percentage of expressing cells in OVA-treated group (cluster ID 9): 0.796
Tsc22d3 percentage of expressing cells in OVA-treated group (cluster ID 9): 0.669
Tubb5 percentage of expressing cells in OVA-treated group (cluster ID 9): 0.966
Uba52 percentage of expressing cells in OVA-treated group (cluster ID 9): 0.996
Ubb percentage of expressing cells in OVA-treated group (cluster ID 9): 0.998
Wdr89 percentage of expressing cells in OVA-treated group (cluster ID 9): 0.993
Zfp36l2 percentage of expressing cells in OVA-treated group (cluster ID 9): 0.758
AC125149.3 LN (average fold change) (cluster ID 9, OVA vs PBS): 0.342
Actg1 LN (average fold change) (cluster ID 9, OVA vs PBS): −0.161
Apobec1 LN (average fold change) (cluster ID 9, OVA vs PBS): 0.201
Basp1 LN (average fold change) (cluster ID 9, OVA vs PBS): −0.559
Cdk1 LN (average fold change) (cluster ID 9, OVA vs PBS): −0.396
Cks1brt LN (average fold change) (cluster ID 9, OVA vs PBS): 1.033
Ddit4 LN (average fold change) (cluster ID 9, OVA vs PBS): 0.791
Eif2ak3 LN (average fold change) (cluster ID 9, OVA vs PBS): 0.581
Hspa8 LN (average fold change) (cluster ID 9, OVA vs PBS): −0.426
Igha LN (average fold change) (cluster ID 9, OVA vs PBS): 0.227
Ighg3 LN (average fold change) (cluster ID 9, OVA vs PBS): 1.831
Il2 LN (average fold change) (cluster ID 9, OVA vs PBS): 0.918
Lnx2 LN (average fold change) (cluster ID 9, OVA vs PBS): 0.811
Malat1 LN (average fold change) (cluster ID 9, OVA vs PBS): −0.269
Mcpt1 LN (average fold change) (cluster ID 9, OVA vs PBS): 2.708
Narf LN (average fold change) (cluster ID 9, OVA vs PBS): 0.449
Nme2 LN (average fold change) (cluster ID 9, OVA vs PBS): 0.703
Rsrp1 LN (average fold change) (cluster ID 9, OVA vs PBS): −0.274
